This is an account of results in patent US20140302039A1 (SAMSUNG ELECTRONICS, published 2014).

First the molecules themselves.
T1: hAng-1 (human, UniProt Q15389 20-498, limits assumed)
T1 construct: Used in 'the same experiment' as hAng-2 C-His in SPR
T1 sequence (looked up): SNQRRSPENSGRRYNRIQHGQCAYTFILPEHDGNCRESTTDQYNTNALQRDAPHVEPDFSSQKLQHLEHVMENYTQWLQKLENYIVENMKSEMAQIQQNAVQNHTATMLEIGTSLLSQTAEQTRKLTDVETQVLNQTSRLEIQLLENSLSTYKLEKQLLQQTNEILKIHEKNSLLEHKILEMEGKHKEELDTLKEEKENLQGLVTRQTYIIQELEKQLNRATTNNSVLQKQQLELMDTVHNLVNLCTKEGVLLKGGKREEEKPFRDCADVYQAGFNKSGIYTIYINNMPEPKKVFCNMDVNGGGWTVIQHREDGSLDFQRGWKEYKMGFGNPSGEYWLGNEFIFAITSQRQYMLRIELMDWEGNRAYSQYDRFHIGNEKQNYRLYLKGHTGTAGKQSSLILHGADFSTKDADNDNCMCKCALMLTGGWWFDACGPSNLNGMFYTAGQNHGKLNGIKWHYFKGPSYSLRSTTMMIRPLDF

B1: SAIT-ANG-2-AB-m1B6 (antibody, V domains shown)
VH: QIQLVQSGPELKKPGETVKISCKASGYTFTNYGMNWVKQAPGKGLKWMGWINTYTGEPTYADDFKGRFAFSLETSASTAYLQINNLKNEDTATYFCARDHDGYLMDYWGQGTSVTVSS
VL: DIQMTQTTSSLSASLGDRVTISCSTSQGISNYLNWYQQKPDGTVKLLIFYTSSLHSGVPSRFSGSGSGTDYSLTISNLEPEDIATYYCQQYSKLPYTFGGGTKLEIK
notes: Mouse hybridoma monoclonal antibody purified on protein G; also called SAIT-ANG-m2-AB-1B6
B2: SAIT-ANG-2-AB-m8D3 (antibody, V domains shown)
VH: EVQLQQSGPELVKPGDSVKMSCKASGYTFTDYYMKWVRQSHGKSLQWVGEINPKNGDTFYNQIFKGKATLTVDKSSSTAYMQLTSLTSEDSAVYYCTRENDYDVGFFDYWGQGTSVTVSS
VL: TIVMTQTPKFLLVSAGDRITITCKASQSVSNDVAWYQQKPGQSPKLLIYYASNRYPGVPDRFTGSGYGTDFTFTISTVQAEDLAVYFCQQDYTSPWTFGGGTELEIK
notes: Mouse hybridoma monoclonal antibody purified on protein G
B3: SAIT-ANG-2-AB-m3E2 (antibody, V domains shown)
VH: EVQLQQSGAELVKPGASVKLSCTASGFNIKDPYIHWVKQRPEQGLEWIGRIDPANGNTKYDPKFQGKATITADTSSNTAYLQLSSLTSEDTAVYYCVRRWDGGGFDYWGQGTSVTVSS
VL: DIQMTQTTSSLSASLGDRVTISCRASQDISNYLNWYQQKPDGTVKLLIYYTSRLHSGVPSRFSGSGSGTDYSLTITNLEQEDIATYFCQQGNTLPWTFGGGTKLEIK
notes: as for B2

This experiment deals with T1, hAng-1. In words: SPR, BIAcore T100, antigen captured on chip, antibody from 100 nM in two-fold dilutions. The protocol: An anti-His antibody was immobilized to the degree of 8,000 response units (RU) on a CM5 sensor chip (GE Healthcare) using a pH 5.0 acetate solution and an amine coupling kit (GE Healthcare). Recombinant hAng-2 protein (C-His, R&D Systems) was flowed into this immobilized antibody at a concentration of 6 μg/ml to capture the antibody at 100˜200 RU. In this regard, the antibodies obtained in Reference Example 2.2.2 were serially diluted by half each time starting from 100 nM before application. […] Kd values were calculated from the measurements. The same experiment was conducted with hAng-1.
(In SPR one partner is held on a chip, and binding of the other changes the refractive index at the surface.)
On to B1, for which the binding result was “no binding”.
For B2, the binding result is reported as “no binding”.
Take B3: the binding result is listed as “no binding”.
